PMC8763658

Biological target: MUC1 mucin (tumor‐associated MUC1) on human cancer cells (human (endogenous in T47D, A549, MCF-7)) (UniProt P15941)
Sequence of UniProt P15941 (P15941 24-1255, stated change not applied): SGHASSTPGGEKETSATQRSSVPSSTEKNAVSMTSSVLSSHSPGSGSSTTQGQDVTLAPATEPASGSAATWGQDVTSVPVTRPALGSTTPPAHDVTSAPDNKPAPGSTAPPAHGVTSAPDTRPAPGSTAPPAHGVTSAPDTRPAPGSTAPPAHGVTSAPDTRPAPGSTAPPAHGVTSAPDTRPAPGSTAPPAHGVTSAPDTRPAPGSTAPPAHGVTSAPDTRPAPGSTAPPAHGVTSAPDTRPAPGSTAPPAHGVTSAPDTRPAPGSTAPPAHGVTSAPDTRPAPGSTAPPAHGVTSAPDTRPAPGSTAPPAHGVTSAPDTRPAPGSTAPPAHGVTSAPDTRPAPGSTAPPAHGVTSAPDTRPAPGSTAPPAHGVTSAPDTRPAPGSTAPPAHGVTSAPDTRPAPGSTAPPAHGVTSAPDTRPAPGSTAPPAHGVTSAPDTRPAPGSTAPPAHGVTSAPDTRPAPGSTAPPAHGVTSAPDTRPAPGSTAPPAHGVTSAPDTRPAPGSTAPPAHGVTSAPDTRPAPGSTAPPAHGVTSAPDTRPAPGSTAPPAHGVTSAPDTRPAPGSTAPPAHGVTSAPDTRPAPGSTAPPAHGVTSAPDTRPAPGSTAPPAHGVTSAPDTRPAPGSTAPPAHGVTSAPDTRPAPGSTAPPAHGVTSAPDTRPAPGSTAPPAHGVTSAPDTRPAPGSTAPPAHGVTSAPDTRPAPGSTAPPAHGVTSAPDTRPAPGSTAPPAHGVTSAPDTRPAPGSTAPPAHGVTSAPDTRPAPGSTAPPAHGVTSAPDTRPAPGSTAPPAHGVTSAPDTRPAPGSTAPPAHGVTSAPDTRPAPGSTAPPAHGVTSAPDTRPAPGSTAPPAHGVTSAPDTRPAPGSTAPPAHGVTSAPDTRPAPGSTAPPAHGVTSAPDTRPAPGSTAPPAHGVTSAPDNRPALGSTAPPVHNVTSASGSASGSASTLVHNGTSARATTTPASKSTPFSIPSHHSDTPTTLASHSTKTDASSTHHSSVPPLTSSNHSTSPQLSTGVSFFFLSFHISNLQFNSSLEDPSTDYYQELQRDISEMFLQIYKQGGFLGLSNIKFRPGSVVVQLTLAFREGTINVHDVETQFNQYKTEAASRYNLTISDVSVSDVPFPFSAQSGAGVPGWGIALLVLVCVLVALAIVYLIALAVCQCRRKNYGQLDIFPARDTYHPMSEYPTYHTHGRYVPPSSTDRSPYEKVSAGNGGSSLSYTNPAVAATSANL

B1: recombinant anti‐MUC1 nanobody (VHH)
VHH: EVQLVESGGGLVQPGGSLRLSCAASGFTFDDYGMSWVRQAPGKWLEWVSDISWNGGSTYYADSVKGRFTISRDNAENTLYLQMNSLKPDDTAVYYCAKMGEGGWGANDYWGQGTQVTVSS
MTT viability assay, A549 cells, 48 h, IC50 of growth inhibition: 14.3 nM | MTT viability assay, MCF7 cells, 48 h, IC50 of growth inhibition: 7 nM | MTT viability assay, MDA‐MB‐231 cells, 48 h, IC50 of growth inhibition: 10 nM | MTT viability assay, SKBR3 cells, IC50 of growth inhibition: 4.16 nM | MTT viability assay, SW742 cells, 48 h, IC50 of growth inhibition: 7.2 nM | MTT viability assay, T47D cells, 48 h, IC50 of growth inhibition: 1.2 nM
